Source: patent publication US20240226230A1 (MAYO FOUNDATION FOR MEDICAL EDUCATION AND RESEARCH, published 2024)

T1: GFP-Nup98 (UniProt P52948 1-880)
T1 construct: Bought plasmid; not shown: GFP tag
T1 sequence (looked up): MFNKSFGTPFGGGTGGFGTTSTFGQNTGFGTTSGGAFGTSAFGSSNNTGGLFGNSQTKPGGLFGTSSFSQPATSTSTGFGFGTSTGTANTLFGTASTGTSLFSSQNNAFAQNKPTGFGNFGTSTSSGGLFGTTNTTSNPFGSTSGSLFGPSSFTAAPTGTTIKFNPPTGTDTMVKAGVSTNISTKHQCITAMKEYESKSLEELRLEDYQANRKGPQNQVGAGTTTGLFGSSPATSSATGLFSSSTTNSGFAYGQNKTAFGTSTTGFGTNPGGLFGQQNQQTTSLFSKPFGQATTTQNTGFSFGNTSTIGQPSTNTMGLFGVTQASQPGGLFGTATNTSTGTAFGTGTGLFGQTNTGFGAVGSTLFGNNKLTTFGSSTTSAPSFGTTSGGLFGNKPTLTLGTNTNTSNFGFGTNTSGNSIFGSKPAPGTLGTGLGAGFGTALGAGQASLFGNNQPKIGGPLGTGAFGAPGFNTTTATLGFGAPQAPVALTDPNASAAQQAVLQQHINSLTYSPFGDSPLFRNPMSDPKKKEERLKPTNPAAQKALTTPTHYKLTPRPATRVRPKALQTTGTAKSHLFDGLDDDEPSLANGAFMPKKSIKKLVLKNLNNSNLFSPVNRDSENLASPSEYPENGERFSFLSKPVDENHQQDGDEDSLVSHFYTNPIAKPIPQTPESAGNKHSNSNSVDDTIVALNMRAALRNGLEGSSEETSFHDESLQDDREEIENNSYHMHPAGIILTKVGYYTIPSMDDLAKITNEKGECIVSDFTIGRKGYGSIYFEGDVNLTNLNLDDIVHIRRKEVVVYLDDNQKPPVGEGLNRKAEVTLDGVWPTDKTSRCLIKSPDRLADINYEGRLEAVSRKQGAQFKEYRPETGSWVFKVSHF

T2: Nup62-mCherry (UniProt P37198 1-522)
T2 construct: mCherry replaced GFP in pNup62-EGFP3; also called mCherry-tagged Nup62; not shown: mCherry tag
T2 sequence: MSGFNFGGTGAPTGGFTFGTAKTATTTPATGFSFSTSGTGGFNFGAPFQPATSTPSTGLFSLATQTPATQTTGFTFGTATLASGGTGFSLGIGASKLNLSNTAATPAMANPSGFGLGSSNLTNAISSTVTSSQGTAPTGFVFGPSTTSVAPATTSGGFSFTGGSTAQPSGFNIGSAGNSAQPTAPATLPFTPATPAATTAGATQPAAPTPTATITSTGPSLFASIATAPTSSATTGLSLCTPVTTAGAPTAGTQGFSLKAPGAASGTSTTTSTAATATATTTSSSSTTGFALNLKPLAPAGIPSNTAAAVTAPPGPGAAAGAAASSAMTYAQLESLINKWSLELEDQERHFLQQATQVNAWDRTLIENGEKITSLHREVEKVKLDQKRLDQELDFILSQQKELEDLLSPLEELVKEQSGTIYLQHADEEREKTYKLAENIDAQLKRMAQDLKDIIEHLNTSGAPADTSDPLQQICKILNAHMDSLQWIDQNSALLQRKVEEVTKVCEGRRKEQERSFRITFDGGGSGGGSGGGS


Key:
GFP-Nup98 = target: T1, GFP-Nup98; assay: co-localisation by immunofluorescence in HEK293T cells (FIG. 35)
Description: FIG. 35: Nup98 strongly associates with TDP-CTF^WT, but not TDP-CTF^VLIM-F and sTDP. […] Arrowheads point to co-aggregation. Hoechst staining was used to outline nuclei. Scale bar: 5 μm.

Nup62-mCherry = target: T2, Nup62-mCherry; assay: co-localisation by fluorescence microscopy of co-transfected cells

binding result (GFP-Nup98) | binding result (Nup62-mCherry) | Binder
no binding |  | mCherry-TDP-CTF^VLIM-F (other, also called mCherry-tagged TDP-CTF^VLIM-F; not shown: mCherry tag (mCherry-C1, Clontech)) GGGSGGGSGGGSREFFSQYGDVMDVFIPKPFRAFAFVTFADDQIAQSLCGEDLIIKGISVHISNAEPKHNSNRQFERSGRFGGNPGGFGNQGGFGNSRGGGAGFGNNQGSNFGGGFNFGAFSFNPAMMAAAQAALQSSWGMMGMLASQQNQSGPSGNNQNQGNFQREPNQAFGSGNNSYSGSNSGAAFGWGSASNAGSGSGFNGGFGSSFDSKSSGWF
 | no binding | GFP-TDP-43^mNLS 1-265 (other, human, not shown: GFP/EGFP tag (pEGFP-C1, Clontech)) GGGSGGGSGGGSMSEYIRVTEDENDEPIEIPSEDDGTVLLSTVTAQFPGACGLRYRNPVSQCMRGVRLVEGILHAPDAGWGNLVYVVNYPKDNAAAMDETDASSAVAVAAAVQKTSDLIVLGLPWKTTEQDLKEYFSTFGEVLMVQVKKDLKTGHSKGFGFVRFTEYETQVKVMSQRHMIDGRWCDCKLPNSKQSQDEPLRSRKVFVGRCTEDMTEDELREFFSQYGDVMDVFIPKPFRAFAFVTFADDQIAQSLCGEDLIIKGISVHISNAEPKHN
